Substitutions are numbered along the chain they refer to.

Results on nine molecules are retold here after patent US20250177546A1 (SANYOU BIOPHARMACEUTICALS, published 2025).

The target in test [1] is T1, huROR1-His (human ROR1 ECD AA30-406 with C-terminal His tag, made in house) (human, UniProt Q01973 30-406).
T1 construct: range 30-406; Expressed in HEK293; also called antigen protein huROR1-His; not shown: C-terminal His tag
Nature of the test: Gator (BLI) Advanced Kinetics; antibody 30 nM, huROR1-His 480-7.5 nM. The procedure:
First, Q buffer was prepared with PBS (10 mM pH7.4) (IgG-free, purchased from Jackson ImmunoResearch Lab)+0.02% Tween 20 (purchased from thermo)+0.2% BSA (purchased from source culture), and the stock solution of the test antibody was diluted with the prepared Q buffer to a working solution with a final concentration of 30 nM, the stock solution of the antigen protein huROR1-His was prepared with Q buffer into a working solution with multiple dilutions (480, 240, 120, 60, 30, 15, 7.5 nM), and detection and analysis was then performed with Gator instrument and its accompanying software, selecting the Advanced Kinetics experimental mode is used.

Test [2] addresses T1, huROR1-His (human ROR1 ECD AA30-406 …). Nature of the test: ELISA, huROR1-His coated plate, goat anti-human Fc-HRP, OD450. (In general: An ELISA detects its analyte on a solid surface through an enzyme-linked reagent.)
For test [3] the target is unchanged. The test is described as above. This is another data set of the same source.
For test [4] the target is unchanged. Briefly: ELISA, huROR1-His coated at 2 µg/mL, goat anti-human Fc-HRP, OD450. The procedure: (§1) 96-well ELISA plate was coated with 2 μg/mL huROR1-His (30 μL/well) at 4° C. overnight. The next day, the plate was washed three times with PBST and then blocked with 5% skim milk for 2 h. […] After washing with PBST for three times, the secondary antibody Goat-anti-human Fc-HRP (abcam, ab97225) was added and incubated for 1 h. After incubation, the plate was washed with PBST for 6 times and TMB (SurModics, TMBS-1000-01) was added for color development. According to the color development results, 2 M HCl was added to terminate the reaction, and the data were read at OD450 using a microplate reader (Molecular Devices, SpecterMax 190).

For test [5], the target named is T2, huROR2-His (human ROR2 ECD AA34-403 with C-terminal His tag) (human, UniProt Q01974 34-403).
T2 construct: range 34-403; Expressed in HEK293; also called human ROR2 antigen protein; not shown: C-terminal His tag
Briefly: ELISA, huROR2-His coated at 2 µg/mL, goat anti-human Fc-HRP, OD450. The procedure:
as §1, with “huROR2-His” for “huROR1-His”, “TMBS-1000-0)” for “TMBS-1000-01)”

Test [6] addresses T3, MusROR1-His (mouse ROR1 ECD AA30-406 with C-terminal His tag) (mouse, UniProt Q9Z139 30-406).
T3 construct: range 30-406; Expressed in HEK293; also called mouse ROR1 antigen protein; not shown: C-terminal His tag
Nature of the test: ELISA, MusROR1-His coated at 2 µg/mL, goat anti-human Fc-HRP, OD450. The procedure:
as §1, with “MusROR1-His” for “huROR1-His”

Test [7] has as its target T4, human ROR1 on cells (full-length human ROR1 on huROR1-HEK293 cells; human ROR1 on A549 and HT-29 tumor cells) (human, UniProt Q01973 30-937).
T4 construct: whole, on cells; also called hROR1-HEK293T; A549 tumor cells
Briefly: flow cytometry (FACS) on A549 tumor cells, anti-human IgG-Fc secondary antibody, MFI. On the procedure:
(§2) In this example, the binding activity of the antibody was evaluated using two types of cells, huROR1-HEK293 cells over-expressing human ROR1 and A549 tumor cells.
(§3) The specific method was as follows: huROR1-HEK293 cells or A549 cells in the logarithmic growth phase were prepared to a single-cell suspension, the density was adjusted to 1×10⁶ cells/mL, then 100 μL/well cells were added to a 96-well round-bottom plate, centrifuged at 4° C., 300 g, and the supernatant was removed. […] After the incubation, the cell mixture was washed three times and then 100 μL of 1:300 diluted secondary antibody Goat F(ab′)₂ Anti-Human IgG-Fc (abcam, ab98596) was added. The mixture was incubated at 4° C. in the dark for 30 min. After washing three times, the cells were detected by flow cytometry (Beckman, CytoFLEX AOO-1-1102).
For orientation: Flow cytometry measures light scatter and fluorescence of single cells or particles in a stream.

In test [8] the target is T4, human ROR1 on cells (full-length human …). Nature of the test: flow cytometry (FACS) on huROR1-HEK293 cells, anti-human IgG-Fc secondary antibody, MFI. The procedure: as §2, §3
Test [9] has as its target T1, huROR1-His (human ROR1 ECD AA30-406 …). Nature of the test: Biacore T200 SPR; huROR1-His amine-coupled (~75 RU), antibody 4 and 20 nM as analyte, 1:1 Langmuir fit. On the procedure:
Protein coupling: The huROR1-His protein produced in Example 1.2 was diluted to 5.6 μg/mL with NaAc buffer, pH 5.0, the flow rate was set to 10 μL/min, the chip activation time was set to the default value of 420 s with a mixture of 1-ethyl-(3-dimethylaminopropyl)carbodiimide (EDC) and N-hydroxysuccinimide (NHS), and the antigen protein huROR1-His was fixed to a level of about 75 RU using a coupling mode with a preset coupling amount, and the activated groups that were not bound to the test sample were blocked with ethanolamine.
Sample test conditions: PBS buffer (pH 7.4) containing 0.05% Tween-20 was used as the running buffer, and the running buffer was used as the control test sample. A series of antibody concentrations (4 nM, 20 nM) were set. During sample analysis, the flow rate was set to 30 μL/min, the binding time was 120 s, and the dissociation time was 360 s. After the dissociation was completed, 10 mM Gly-HCl (pH 2.0) was used for regeneration for 20 s to completely remove the antibody bound to the ligand.
Parameter fitting: The experiment was run in multiple cycles, with the response signal taking the analysis time as the horizontal axis and the response value as the vertical axis. After double reference subtraction, the obtained data were fitted by BiAcore T200 analysis software. The fitting model adopted was 1:1 Langmuir binding model, and Affinity metrics such as the binding dissociation constant were determined.
Background: In SPR one partner is held on a chip, and binding of the other changes the refractive index at the surface.

T1 sequence (Q01973 30-406 limits assumed): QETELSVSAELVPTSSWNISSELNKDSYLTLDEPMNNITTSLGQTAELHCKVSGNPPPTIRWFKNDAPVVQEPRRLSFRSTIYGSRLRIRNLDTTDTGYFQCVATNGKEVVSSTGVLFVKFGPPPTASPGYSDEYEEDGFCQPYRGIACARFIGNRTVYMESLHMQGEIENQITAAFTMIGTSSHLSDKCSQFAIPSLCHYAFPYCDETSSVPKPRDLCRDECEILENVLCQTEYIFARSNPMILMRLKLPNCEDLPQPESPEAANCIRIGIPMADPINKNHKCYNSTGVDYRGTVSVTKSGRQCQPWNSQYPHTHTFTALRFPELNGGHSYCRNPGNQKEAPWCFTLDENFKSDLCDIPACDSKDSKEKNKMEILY
T4 sequence (Q01973 30-937): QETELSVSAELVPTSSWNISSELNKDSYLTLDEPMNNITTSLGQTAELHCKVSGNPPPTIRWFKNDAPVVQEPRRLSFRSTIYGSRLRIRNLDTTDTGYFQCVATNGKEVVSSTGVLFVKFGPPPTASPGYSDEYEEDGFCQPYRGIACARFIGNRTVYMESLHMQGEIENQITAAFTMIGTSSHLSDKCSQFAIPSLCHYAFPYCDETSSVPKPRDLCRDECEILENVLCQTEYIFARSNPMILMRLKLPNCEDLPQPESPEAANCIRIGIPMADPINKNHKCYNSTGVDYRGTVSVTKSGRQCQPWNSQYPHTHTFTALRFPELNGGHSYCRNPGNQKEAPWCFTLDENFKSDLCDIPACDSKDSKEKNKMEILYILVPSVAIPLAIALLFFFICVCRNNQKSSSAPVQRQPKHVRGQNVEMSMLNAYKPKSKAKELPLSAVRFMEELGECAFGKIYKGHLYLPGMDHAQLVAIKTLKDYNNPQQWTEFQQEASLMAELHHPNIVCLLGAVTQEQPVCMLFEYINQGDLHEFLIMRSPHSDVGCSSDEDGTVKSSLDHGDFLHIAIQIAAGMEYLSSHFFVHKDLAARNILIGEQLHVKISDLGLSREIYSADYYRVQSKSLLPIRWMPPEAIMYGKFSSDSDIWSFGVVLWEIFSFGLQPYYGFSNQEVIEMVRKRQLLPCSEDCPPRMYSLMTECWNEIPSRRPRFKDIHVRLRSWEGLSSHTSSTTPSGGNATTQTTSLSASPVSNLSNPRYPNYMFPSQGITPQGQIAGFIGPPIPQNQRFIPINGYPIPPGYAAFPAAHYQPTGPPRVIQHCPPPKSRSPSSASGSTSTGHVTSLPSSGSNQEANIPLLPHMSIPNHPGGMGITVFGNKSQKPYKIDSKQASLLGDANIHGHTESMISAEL
T3 sequence (Q9Z139 30-406 limits assumed): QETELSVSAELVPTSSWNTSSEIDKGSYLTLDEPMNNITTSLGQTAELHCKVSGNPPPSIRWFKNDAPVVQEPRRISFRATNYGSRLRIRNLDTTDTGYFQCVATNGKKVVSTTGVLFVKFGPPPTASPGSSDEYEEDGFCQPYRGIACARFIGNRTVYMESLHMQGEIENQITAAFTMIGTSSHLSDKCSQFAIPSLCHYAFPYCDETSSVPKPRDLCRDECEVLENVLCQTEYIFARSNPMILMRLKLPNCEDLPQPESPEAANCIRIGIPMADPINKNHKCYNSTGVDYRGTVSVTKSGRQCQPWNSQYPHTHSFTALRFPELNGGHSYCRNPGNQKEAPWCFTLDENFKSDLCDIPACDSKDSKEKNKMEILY
T2 sequence (Q01974 34-403 limits assumed): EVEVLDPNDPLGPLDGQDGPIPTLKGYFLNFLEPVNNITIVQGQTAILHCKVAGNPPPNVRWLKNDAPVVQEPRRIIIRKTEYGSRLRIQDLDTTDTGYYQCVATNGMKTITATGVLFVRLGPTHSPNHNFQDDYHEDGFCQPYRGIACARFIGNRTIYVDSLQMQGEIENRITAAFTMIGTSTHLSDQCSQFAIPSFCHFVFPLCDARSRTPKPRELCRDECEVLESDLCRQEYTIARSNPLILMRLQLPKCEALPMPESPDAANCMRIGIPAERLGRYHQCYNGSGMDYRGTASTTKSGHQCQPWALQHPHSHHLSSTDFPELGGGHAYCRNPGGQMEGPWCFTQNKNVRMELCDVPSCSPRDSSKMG

B1: B62 (chimeric antibody) (antibody, human IgG1, kappa, V domains shown)
VH: DVKLVESGGGLVQPGGSLKLSCAASGFTFSSYVMSWVRQTPDKRLELVATINSNGGNTYYPDSVKGRFTISRDNAKNTLYLQMSSLKSEDTAMYYCARDSLGLRRRDYAMDYWGQGTSVTVSS
VL: DIVLTQSPASLSMAIGEKVTIRCVTSIDIDDDVNWYQQKPGKPPKLLISAGNTLRPGVPSRFSSSGYGTDFVFTIENMLSEDVADYYCLQSDNLPYTFGGGTKLEIKR
notes: ExpiCHO expression
As usually defined, the Kd is the free concentration of one partner at which half of the binding sites on the other are occupied at equilibrium, for simple one-to-one binding. Low values mean a tighter complex, high ones a looser complex. For orientation: koff means the rate constant with which the complex falls apart. Low values mean slow dissociation, high ones fast dissociation. As usually defined, the kon is a measure of how fast the partners come together. Higher therefore signals fast association. The EC50 is the concentration at which the effect is half-maximal. A higher EC50 goes with lower potency in that assay. What is called EC50 (read off the curve) is the concentration at which the effect is half-maximal. A lower EC50 (read off the curve) goes with greater potency. As for B1, the dissociation constant Kd in test [1] was found to be 0.984 nM; in test [9] it was 0.0639 nM. For the same molecule, the dissociation rate constant (koff) in test [1] amounted to 0.000373 s⁻¹; in test [9] it was 7.74e-05 s⁻¹. Moreover, the on-rate constant (kon) in test [1] was 379000 M⁻¹ s⁻¹; in [9], 1.21e+06 M⁻¹ s⁻¹. The results for the EC50 in [2], in test [3] and in test [4] were 5.58 ng/mL, 5.46 ng/mL and 8.03 ng/mL, respectively. In addition, the binding result in test [5] was “no binding (tested: 1 µg/mL)”. Besides, the half-maximal effective concentration (EC50 (read off the curve)) was approximately 4 ng/mL in test [6], approximately 6 ng/mL in [7] and approximately 70 ng/mL in test [8]. Further, the “t 1/2” value in test [9] amounted to 2.49 h.

B2: M78 (chimeric antibody) (antibody, human IgG1, kappa, V domains shown)
VH: EVMLVESGGGLVRPGGSLKLSCAASGFTFSSYAMSWVRQSPEKRLEWVASINRGGTTYYPDSVKGRFTISRDNARDILYLQMSSLRSEDTAIYYCARDYYYGSNLYNGMDYWGQGTSVIVSS
VL: DIKITQSPSSMYASLGERVTITCKASQDINSYLSWFQQKPGKSPKTLIYRANRLVDGVPSRFSGSGSGQDYSLTISSLEYEDMGIYYCLQFDEFPYTFGGGTKLEIKR
notes: ExpiCHO expression
In test [1], B2 had a Kd of 1.86 nM, an off-rate constant (koff) of 0.000614 s⁻¹ and a kon of 330000 M⁻¹ s⁻¹. In addition, it took 2.12 ng/mL to reach a half-maximal effect in test [4] (EC50). The binding result in test [5] is listed as “no binding (tested: 1 µg/mL)”. Also, the binding result in test [6] is given as “no binding (tested: 1 µg/mL)”. The “EC50 (read off the curve)” value in [7] is approximately 20 ng/mL. The “EC50 (read off the curve)” value in test [8] is approximately 100 ng/mL.

B3: B62-H2L3 (antibody, human IgG1, kappa)
heavy: not shown
light: DIQMTQSPSSLSASVGDRVTITCVTSIDIDDDVNWYQQKPGKAPKLLISAGNTLRPGVPSRFSGSGSGTDFTFTISSLQPEDIATYYCLQSDNLPYTFGGGTKLEIKRTVAAPSVFIFPPSDEQLKSGTASVVCLLNNFYPREAKVQWKVDNALQSGNSQESVTEQDSKDSTYSLSSTLTLSKADYEKHKVYACEVTHQGLSSPVTKSFNRGEC
Regarding B3, the half-maximal effective concentration (EC50) in test [2] was 6.3 ng/mL.

B4: B62-H2L2 (antibody, human IgG1, kappa)
heavy: not shown
light: B3 light with M4L, T22R
For the molecule B4, the EC50 in test [2] is 6.27 ng/mL.

B5: B62-H2L4 (antibody, human IgG1, kappa, V domains shown)
VH: B1 VH with D1E, K3Q, K19R, T40A, D42G, R44G, S84G, K87R, S88A, S118T
VL: DIQMTQSPSSLSASVGDRVTITCQTSIDIDDDVNWYQQKPGKAPKLLISAGNTLETGVPSRFSGSGSGTDFTFTISSLQPEDIATYYCLQSDNLPYTFGGGTKLEIKR
B5 gave an EC50 in [3] of 8.48 ng/mL.

B6: B62-H1L2 (antibody, human IgG1, kappa, V domains shown)
VH: B1 VH with D1E, K3Q, K19R, D42G, K87R, S88A, S118T
VL: B5 VL with M4L, T22R, Q24V, E55R, T56P
As for B6, in test [2], a half-maximal effect (EC50) was put at 7.88 ng/mL.

B7: B62-H3L4 (antibody, human IgG1, kappa, V domains shown)
VH: EVQLVESGGGLVQPGGSLRLSCAASGFTFSSYVMSWVRQAPGKGLEYVATINSNGGNTYYADSVKGRFTISRDNSKNTLYLQMGSLRAEDTAMYYCARDSLGLRRRDYAMDYWGQGTTVTVSS
VL: B5 VL
Regarding B7, it took 6.24 ng/mL to reach a half-maximal effect in [3] (EC50).

B8: B62-H1L1 (antibody, human IgG1, kappa, V domains shown)
VH: B7 VH with A40T, G44R, Y47L, A61P, S75A, G84S
VL: B5 VL with M4L, T22R, Q24V, E55R, T56P, G64S, S67Y, L78M
In turn, B8 came in with an EC50 in [2] of 7.1 ng/mL.

B9: B62-H3L2 (antibody, human IgG1, kappa)
heavy: not shown
light: B3 light with M4L, T22R
In [3], B9 returned a 50% effective concentration (EC50) of 6.59 ng/mL.
